The text below walks through data of the nanobody polyreactivity screen of Harvey et al. (2022).

This data set can be described thus: yeast display, Sf9 membrane polyspecificity reagent, FACS + sequencing; frameworks hold sequencing errors. The method, boiled down: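 Polyreactivity labels are assigned by the sorting gate from which each nanobody was recovered. The gates were low and high (top ~1%), set on anti-HA fluorescence for expression and streptavidin fluorescence for reagent binding. Before sorting, galactose-induced (36–48 hours) yeast display cells were stained for 1 hour at 4 °C with 10% biotinylated, detergent-solubilized Sf9 membrane reagent.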
As to “QVQLVESGGGLVQAGGSLRLSCAASGSIFARYAMGWYRQAPGKERELVAAITYSGGSTYYADSVKGRFTISRYNAKNTVYLQMNSLKPEDTAVYYCALRSGYGRWYPYDYWGQGTQVTVSS”, the “polyreactivity (PSR sort gate)” value is “high polyreactivity”.

With “QVQLVESGGGLVQAGGSLRLSCAASGFIFSTYAMGWYRQAPGKERELVAAITRTGTRTYYADSVKGRFTISRDNAKNTVYLQMNSLKPEDTAVYYCAARAGGEAYGSRYGYWGQGTQVTVSS”, the “polyreactivity (PSR sort gate)” value is “high polyreactivity”.

For the sequence “QVQLVESGGGLVQAGGSLRLSCSASGFTFKRYAKGLYRQAHGKERELVASISSSGGRTYYADSVKGRFTISRDNAKNTVYLQMNSLKPEDTAVYYCSASDWWGYYFWGQGTQVTVSS”, the “polyreactivity (PSR sort gate)” value is on record as “high polyreactivity”.

As for “QVQLVESGGGLVQAGGSLRLSCAASVITFYFNAMGWYRQAPGKERELVAVITSGGSTNYADSVKGRFTISRDNAKNTVNLQMNSLKPEDTAVYYCATDKSYSSWSAQYDYWGQGTQVTVSS”, the “polyreactivity (PSR sort gate)” value is recorded as “low polyreactivity”.

In the case of “QVQLEESGGGLVQAGGSLRLSCAASGSTFYSNAIGWYRQAPGKEREFVAAISLRGGSTYYADSVKGRFTISRDNAKNTVYLQMNSLKPEDTAVYYCAVDYYRRNGLKVYYRYDYWGQGTQVTVSS”, the “polyreactivity (PSR sort gate)” value was “high polyreactivity”.

Consider “QVQLVESGGGLVQAGGSLRLSCAASGSIFRRNAMGWYRQAPGKERELVAAISIRGGSTYYADSVKGRFTISRDNAKNTVYLQMNSLKPEDTAVYYCNAKFRKADYDYWGQGTQVTVSS”, for which the “polyreactivity (PSR sort gate)” value is reported as “high polyreactivity”.

Consider “QVQLVESGGGLVQAGGSLRLSCAASGSIFWRNAMGWYRQAPGKERELVAAITSGGTTNYADSVKGRFTISRDNAKNTVYLQMNSLKPEDTAVYYCATGASYLRRYDHPHSDVDYWGQGTQVTVSS”, for which the “polyreactivity (PSR sort gate)” value is recorded as “low polyreactivity”.

“QVQLVESGGGLVQAGGSLRLSCAASGITFGFNAMVWYRQAPGKETELVAAITYRGGSTYYADSVKGRFTISRDNAKNTVYLQMNSLKPEDTAVYYCAADIGRHTDNYDPRYDYWGQGTHVTVSS”: the “polyreactivity (PSR sort gate)” value is “low polyreactivity”.

“QVQLVESGGGLVQAGGSLRLSCAASGLIFSWYDMGWYRQAPGIERELVAAITTDGDDTYYADSVKGRFTISRDNAKNTVYLQLNSLKPEDTAVYYCAADSELAIRYPDRDYDSWGHGTQVTVSS”: the “polyreactivity (PSR sort gate)” value is given as “low polyreactivity”.

As for “QVQLVESGGGLVQAGGSLRLSCAASGRTFHYYAMGWYRQAPGKERELVAAITSSGGSTYYADSVKGRFTISRDNANNTVYLQMNSLKPEDTAVYYFNAYSSYIKYDYWGQGTQVTVSS”, the “polyreactivity (PSR sort gate)” value is listed as “high polyreactivity”.

Regarding “QVQLVESGGGLVQAGGSLRLSCAASGFTVRYYAMGWYRQAPGKERELVAAISWSGGSTYYADSVKGRFTISRDNAKNTVYLQMNSLKPEDTAVYYCNRETSPKVYYPNDYWGQGTQVTVSS”, the “polyreactivity (PSR sort gate)” value was “low polyreactivity”.

For “QVQLVESGGGLVQAGGSLRLSCAASGSIFYYNAMGWYRQAPGKERELVAAINSNGGSTYYADSVKGRFTISRDNAKNSVYFQMNSLKPEDTAVYYCNARYPGRTQGRYYYWGHGTQVTVSS”, the “polyreactivity (PSR sort gate)” value is reported as “low polyreactivity”.

Regarding “QVQLVESGGGLVQAGGSLRLSCAASGRIFEEYVMGWYRQAPGKERELVAAISFSGSRTYADSVKGRFTISRDNAKNTVYLQMNSLKPEDTAVYYCAADPSISYDYWGQGTQVTVSS”, the “polyreactivity (PSR sort gate)” value was “low polyreactivity”.

“QVQLVESGGGLVQAGGSLRLSCAASGRTFWYYAMGWYRHAPGKERELVAAITSGGSTNYADSVKGRFTISRDNAKNTVSLQMNSLKPEDTAVYYCAKLFRQRRYWDWYDYWGQGTQVTVSS”: the “polyreactivity (PSR sort gate)” value is “high polyreactivity”.

For “QVQLVESGGGLVHAGGSLRLSCAASGSIFPVNAMGWYRQAPGKERELVAAITSSGGTTYYADSVKGRFTISRDYAKITVYLLMNSLKPVDTAVYYCAADVDVSYWRMEYWGQGTQVTVSS”, the “polyreactivity (PSR sort gate)” value was “high polyreactivity”.

Regarding “QVQLVESGGGLDQAGGTLRLSSAASGSTFYTNAMGWYRQAPGKERELVAAISGSGGSTYYADSVKGRFTISRDNAKNTVYLQMNSLKPEDNAVYYCAARSRYYDTRFDYWGQGTQVTVSS”, the “polyreactivity (PSR sort gate)” value is “low polyreactivity”.

As to “QVQLVESGGGLVQAGGSLRLSCAASGSIFENNAMGWYRQAPGKERELVAAISSDDTTNYADSVKGRFTISRDNAKNTVYLQMNSLKPEDTAVYYCATDYYVYGYPYDYGYWGQGTQVTVSS”, the “polyreactivity (PSR sort gate)” value is reported as “low polyreactivity”.

As to “QVQLVESGGGLVQAGGSLRLSCAASGSISRFNTMGWYRQAPGKERELVAAITVSGGSTYYADSVKGRFTISRDNAKNTVYLQMNSLKPEDTAVYYCAKEAWRYRLNFRYNYWGQGTQVTVSS”, the “polyreactivity (PSR sort gate)” value is recorded as “low polyreactivity”.

For the sequence “QVQLVESGGGLVQAGGSLRLSCAASGRIFGYNAMGWYRQAPGKERELVDAITTSGGSTYYADSVKGRFTISRDNAKNTVYLQMNSLKPEDTAVYYCARDSLQVFYPYASDDYWGQGTQVTVSS”, the “polyreactivity (PSR sort gate)” value is reported as “low polyreactivity”.

As to “QVQLVESGGGLVQAGGSLRLSCAASGRIFSYMGWYRQAPGKERELVASISWSGGSTYYADSVKGRFTISRDNAKNTVYLQMNSLKPEDTAVYYCAAYLRSYVRYYYWGQGTQVTVSS”, the “polyreactivity (PSR sort gate)” value was “high polyreactivity”.

As to “QVHLVESGGGLVQAGGSLRLSCAASGFTFDQNAMGWYRQAPGKERELVAAISIGGSTYYADSVKGRFTISRDNAKNTVYLQMNSLKPEDTAVYYCATRNIYFSSVDYWGQGTQVTVSS”, the “polyreactivity (PSR sort gate)” value was “high polyreactivity”.

Turning to “QVQLVESGGGLVQAGGSLRLSCAASGSTFYYNAMGWYRQAPGKERELVARISRAGASTYYAVAVKGRFTISRDNAKNTVYLPMNSLTPEDTAGYYCAARKKKYGYDNWGQATQVTVSS”, the “polyreactivity (PSR sort gate)” value was “high polyreactivity”.

As for “QVQVVESGGGLVQEGGSHRISCAASGRIFFTNAMGWSRQAPGKERELVAAINDVGSTYYADSVKGRFTISRDNAKNTVYLQLNSLKAEDTAVYYCAVQAYGRGRSLKMYYWRQGTQVTVSS”, the “polyreactivity (PSR sort gate)” value was “high polyreactivity”.

As for “QVQLVESGGGLVQAGGSLRLSCAASGNIFSRYAMGWYRQAPGKERELVAAISKSGGSTYYADSVKGRFTISRDNAKNTVYLQMNSLKPEDTAVYYCAAYTFFLGYPEFDYWGQGTQVTVSS”, the “polyreactivity (PSR sort gate)” value is recorded as “high polyreactivity”.

In the case of “QVQLEESGGGLVQAGGSLRLSCAASGFTFRRYDMGWYRQAPGKERELVATINRGGSTDSADSVKGRFTISRDNAKNTVYLQMNSLKPEDTAVYYCATRYYSSRTWSEYYYWGQGTQVTVSS”, the “polyreactivity (PSR sort gate)” value was “high polyreactivity”.

With “QVQLVDSGGGLVQAGGSLRLSCAASGRTLWYYTMGWYRQAPGKERELVADITRGTSTNYADSVKVRFTISRDNAKNTVYLQMNSLKPEDTAVYYCNRAHGRSRYSRDYDSWGQGTQVTVSS”, the “polyreactivity (PSR sort gate)” value was “low polyreactivity”.

Consider “QVQLVESGGGLVQAGGSLRLSCAASGLTFTTYAMGWYRQAPGKERELVAAISRRGSRTYYADSVKGRFTISRDNAKNTVYLQMNSLKPEDTAVYYCARRAGSYPYGYTGYDYWGQGTQVTVSS”, for which the “polyreactivity (PSR sort gate)” value is “high polyreactivity”.

“QVQLVESGGGLVQAGGSLRLSCAASGSTFYIYAMGWYRQAPGKERELVAAISGRGGSTYYADSVKGRFTISRDNAKNTVYLQMNSLKPEDTAVYYCATSLRVRRSSRDYWGQGTQVTVSS”: the “polyreactivity (PSR sort gate)” value is given as “high polyreactivity”.

Consider “QVHLVESGGGLVQAGGSLRLSCAASGRTFASNPMGWYRQAPGKERELVAAISARGGSTYYADSVKGRFTISRDNAKNTVYLQMNSLKPEDTAVYYCAAYLGYPYGRDYWGQGTQVTVSS”, for which the “polyreactivity (PSR sort gate)” value was “high polyreactivity”.

“QVQLVESGGGLVQAGGSLRLSCAASGFTFGWYAMGWYRQAPGKEREFVAAISQTGGSTYYADSVKGRFTISRDNAKNTVYLQMNSLKPEDTAVYYCAAPGKRRGVYYWGQGTQVTVSS”: the “polyreactivity (PSR sort gate)” value is “high polyreactivity”.

As to “QVQLVESGGGLVQAGGSLRLSCAASGFTFYKNTMGWYRQAHGTERELVAAISSSGSSTYYADSVKGRFTISRDNAKNTVYLQMNSLKPEDTAVYYCAAGRFAYHDDYWGQGTQVTVSS”, the “polyreactivity (PSR sort gate)” value is “high polyreactivity”.

As for “QGQLVESGGGLVQAGGSLRLSCAASGFTFSPYAMGSYRQAPGKERELVAVISGGGSTYYADSVKGRFTISRDNAKNTVYLQMNSLKPEDTAVYYCAKRFYRSYYWGQGTQVTVSS”, the “polyreactivity (PSR sort gate)” value was “high polyreactivity”.

Regarding “QVQLVESGGGLVQAGGSLRLSCAASGRIIKFYAMGWYRQAPGKERELVARISRSGGRTYYADSVKGRFTISRDNAKITVYLQMNSLKPEDTAVYYCAADTQSVATYDYWGQGTQVTVSS”, the “polyreactivity (PSR sort gate)” value is on record as “low polyreactivity”.

For “QVQLVESGGGLVQAGGSLRLSCAASGSIFLSYDMGWYRQAPGKERELVAAITQSGGSTYYADSVKGRFTISRDNAKNTVYLQMNSLKPEDTAVYYCAADYGYFPQETYPTYGYYYWGQGTQVTVSS”, the “polyreactivity (PSR sort gate)” value is recorded as “low polyreactivity”.

Consider “QVQLVESGGGLVQAGGSLRLSCAASGRTFDPYAMGWYRQAPGKDRELVAAISRSGGSTYYADSVKGRFTISRDNAKNTVYLQMNSLKPEDTAVYYCAADASRYYYEYDYWGQGTQVTVSS”, for which the “polyreactivity (PSR sort gate)” value is reported as “high polyreactivity”.

On to “QVQLVESGGGLVQAGGSLRLSCAASGRTFPFYAMGWYRQAPGKERELVASISRSTGRTYYADSVKGRFTISRDNAKNTVYLQMNSLKPEDTAVYYCAKSGGSSQYWYGYWGQGTQVTVSS”, for which the “polyreactivity (PSR sort gate)” value is “high polyreactivity”.

In the case of “QVQLVESGGGLVQAGGSLRLSCAASGLIFSYNAMGWYRQAPGKERELVASISSGDSTNYADSVKGRFTISRDNAKNTVYLQMNSLKPEDTAVYYCNKVYSWGDYTPPFYFPYDYWGQGTQVTVSS”, the “polyreactivity (PSR sort gate)” value is “low polyreactivity”.

“QVQLVESGGGLIQAGGSRRLSCAASGIIFYPYTMGWYRQARGKERELVAAIRQSGTSTYYADSVKGRFTISRDNAKNTVYLQMNSLKPEDTAVYYCNADDHIYWRKGYDYWGQGTQVTVSS”: the “polyreactivity (PSR sort gate)” value is listed as “low polyreactivity”.

In the case of “QVQLVESGGGLVQAGGSLRLSCAASGSIFKSYAMGWYRQAPGKERELVAAITYRGGSTYYADSVKGRFTISRDNAKNTVYLQMNSLKPEDTAVYYCAKDQHRYYQVWGDYWGQGTQVTVSS”, the “polyreactivity (PSR sort gate)” value is on record as “high polyreactivity”.

Regarding “QVQLVESGGGLVQAGGSLRLSCAASGRIFSAYAMGWYRQAPGKEREFVAAISARGGSTNYADSVKGRFTISRDNAKNTVYLQMNSLNPEDTAVYYCNDRYVQWYWIAKVIHIDNDYWGQGTQVTVSS”, the “polyreactivity (PSR sort gate)” value is reported as “low polyreactivity”.

Regarding “QVQLVESGGGLVQAGGSLRLSCAASGRIFPVNAMGCYRQAPGKEREFVSAIRGTGTSTYYADSVKGRFTISRDNAKNTVYLQMNSLKPEDTAVYYCAARGYVQYQGQNVNTFDYWGQGTQVTVSS”, the “polyreactivity (PSR sort gate)” value is listed as “low polyreactivity”.
